Results from IntAct's records for PubMed 20802462.

B1: ERO1-like protein alpha (Homo sapiens), Q96HE7 (parent)
chain: MGRGWGFLFGLLGAVWLLSSGHGEEQPPETAAQRCFCQVSGYLDDCTCDVETIDRFNNYRLFPRLQKLLESDYFRYYKVNLKRPCPFWNDISQCGRRDCAVKPCQSDEVPDGIKSASYKYSEEANNLIEECEQAERLGAVDESLSEETQKAVLQWTKHDDSSDNFCEADDIQSPEAEYVDLLLNPERYTGYKGPDAWKIWNVIYEENCFKPQTIKRPLNPLASGQGTSEENTFYSWLEGLCVEKRAFYRLISGLHASINVHLSARYLLQETWLEKKWGHNITEFQQRFDGILTEGEGPRRLKNLYFLYLIELRALSKVLPFFERPDFQLFTGNKIQDEENKMLLLEILHEIKSFPLHFDENSFFAGDKKEAHKLKEDFRLHFRNISRIMDCVGCFKCRLWGKLQTQGLGTALKILFSEKLIANMPESGPSYEFHLTRQEIVSLFNAFGRISTSVKELENFRNLLQNIH

Variants of: B1
Conditions: with pdia1_human P4HB

| effect of a mutation on the interaction | Variant |
| --- | --- |
| disrupting interaction | MGRGWGFLFGLLGAVWLLSSGHGEEQPPETAAQRCFCQVSGYLDDCTCDVETIDRFNNYRLFPRLQKLLESDYFRYYKVNLKRPCPFWNDISQSGRRDCAVKPCQSDEVPDGIKSASYKYSEEANNLIEECEQAERLGAVDESLSEETQKAVLQWTKHDDSSDNFCEADDIQSPEAEYVDLLLNPERYTGYKGPDAWKIWNVIYEENCFKPQTIKRPLNPLASGQGTSEENTFYSWLEGLCVEKRAFYRLISGLHASINVHLSARYLLQETWLEKKWGHNITEFQQRFDGILTEGEGPRRLKNLYFLYLIELRALSKVLPFFERPDFQLFTGNKIQDEENKMLLLEILHEIKSFPLHFDENSFFAGDKKEAHKLKEDFRLHFRNISRIMDCVGCFKCRLWGKLQTQGLGTALKILFSEKLIANMPESGPSYEFHLTRQEIVSLFNAFGRISTSVKELENFRNLLQNIH [C94S] |
